B1: FAM98B (parent)
chain: QLDKNSEVYQEVQAMFDTLGIPKS

Variants of: B1
Experiment: protein stability index of a GFP-peptide fusion (GPS, HEK-293T) (PSI 1-6); higher = more stable
Conditions: c terminus: a fixed tail appended
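Also: lentivirally expressed fusions sorted by FACS into six bins by GFP to DsRed ratio, PSI derived from sequencing read proportions per bin multiplied by bin number.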

Protein stability index: each site, then its substitutions
I21: K 3.58 | E 4.21 | H 3.4 | F 3.3 | C 3.53 | G 3.69 | P 3.6 | M 3.27 | Y 3 | R 2.76 | A 3.72 | V 3.51 | W 3.6 | D 3.8 | S 3.34 | N 3.41 | T 3.69 | L 4 | Q 3.64
P22: H 2.87 | M 3.37 | D 4.05 | S 4.04 | E 4.15 | V 3.16 | G 2.53 | T 3.48 | F 2.12 | K 3.38 | I 2.78 | A 3.48 | L 2.03 | Q 2.62 | C 3.11 | Y 2.54 | R 4.78 | N 3.38 | W 2.98
K23: E 4.21 | I 2.15 | P 3.47 | S 3.24 | R 3.38 | Q 3.41 | G 3.17 | L 2.46 | W 2.3 | A 3.26 | F 2.59 | C 3.06 | N 3.54 | H 3.33 | M 3.38 | Y 2.71 | T 3.24 | D 3.82 | V 3.4
G20: R 2.44 | P 3.01 | W 3 | N 3.97 | S 3.75 | M 2.5 | E 3.77 | K 3.62 | C 2.63 | T 3.15 | Y 3.02 | D 3.74 | A 3.04 | V 2.86 | Q 2.98 | I 3.21 | L 3.2 | F 3.04 | H 2.55
T18: H 3.07 | K 2.25 | L 2.97 | F 3.52 | P 3.38 | G 3.25 | V 2.57 | I 2.79 | N 3.13 | W 2.02 | S 2.85 | M 2.78 | R 3.33 | Q 3.24 | Y 2.67
L19: C 3.69 | W 2.45 | I 3.06 | N 3.38 | Q 3.76 | V 3.56 | M 3.15 | A 3.64 | T 3.59 | K 3.32 | S 3.46 | R 3.7 | E 3.58 | P 3.17 | H 3.71 | G 3.49 | D 2.85 | F 2.85 | Y 3.6
S24: Y 2.36 | P 2.79 | I 2.67 | R 2.5 | G 3.61 | K 2.96 | T 2.48 | H 2.99 | L 2.46 | M 2.69 | Q 3.25 | V 2.61 | E 3.47 | C 2.44 | W 2.99 | N 3.56 | D 4.28 | A 2.88 | F 3
